{"source": "patent US20220016254A1", "about": "(BEIJING QL BIOPHARMACEUTICAL, published 2022)", "binders": {"B1": {"name": "Compound 69 (ligand)", "chain": "EGTFTSDVSSYLEEQAAKEFIAWLVKGGGGGGGSGGGGSGGGGSGGGGCHPIPDSSPLLQFGGQVRQRYLYTDDAQQTEAHLEIREDGTVGGAADQSPESLLQLKALKPGVIQILGVKTSRFLCQRPDGALYGSLHFDPEACSFRELLLEDGYNVYQSEAHGLPLHLPGQKSPHRDPAPRGPARFLPLPGLPPALPEPPGILAPQPPDVGSSDPLSLVGCSQGRSPSYES", "modifications": "Moiety B (HOOC-(CH2)20-CO-gGlu-2XADO-EDA-CO-CH2) on 49C and 220C of fusion polypeptide"}, "B2": {"name": "Compound 71 (ligand)", "chain": "HGEGTFTSDVSSYLEEQAAKEFIAWLVKGGGGAQPGAQPGAQPGAQPGAQPCQAPGAQPGAQPGAQPGAQPGAQPGAQPGAQPGAQPGAQPGAQPGAQPGAQPGAQPGAQPHPIPDSSPLLQFGGQVRQRYLYTDDAQQTEAHLEIREDGTVGGAADQSPESLLQLKALKPGVIQILGVKTSRFLCQRPDGALYGSLHFDPEACSFRELLLEDGYNVYQSEAHGLPLHLPGQKSPHRDPAPRGPARFLPLPGLPPALPEPPGILAPQPPDVGSSDPLSLVGCSQGRSPSYES", "modifications": "Moiety B (HOOC-(CH2)20-CO-gGlu-2XADO-EDA-CO-CH2) on 52C and 282C of fusion polypeptide"}, "B3": {"name": "Compound 73 (ligand)", "chain": "B2 chain with A41Q, Q42C, C52G, Q53A, A54Q", "modifications": "Moiety B (HOOC-(CH2)20-CO-gGlu-2XADO-EDA-CO-CH2) on 42C and 282C of fusion polypeptide"}, "B4": {"name": "Compound 72 (ligand)", "chain": "B2 chain with C52G, Q53A, A54Q, A61Q, Q62C", "modifications": "Moiety B (HOOC-(CH2)20-CO-gGlu-2XADO-EDA-CO-CH2) on 62C and 282C of fusion polypeptide"}, "B5": {"name": "Compound 4 (ligand)", "chain": "HGEGTFTSDVSSYLEEQAAREFIAWLVRGGGGGGGSGGGGSGGGGSGGGGKHPIPDSSPLLQFGGQVRQRYLYTDDAQQTEAHLEIREDGTVGGAADQSPESLLQLRALRPGVIQILGVRTSRFLCQRPDGALYGSLHFDPEACSFRELLLEDGYNVYQSEAHGLPLHLPGQRSPHRDPAPRGPARFLPLPGLPPALPEPPGILAPQPPDVGSSDPLSLVGGSQGRSPSYKS", "modifications": "Moiety A (HOOC-(CH2)16-CO-gGlu-2XADO) on 51K and 231K of fusion polypeptide"}, "B6": {"name": "Compound 5 (ligand)", "chain": "B5 chain with G222K, K231A", "modifications": "Moiety A (HOOC-(CH2)16-CO-gGlu-2XADO) on 51K and 222K of fusion polypeptide"}, "B7": {"name": "Compound 70 (ligand)", "chain": "HGEGTFTSDVSSYLEEQAAKEFIAWLVKGGGGGGGSGGGGSGGGGSGGGGCHPIPDSSPLLQFGGQVRQRYLYTDDAQQTEAHLEIREDGTVGGAADQSPESLLQLKALKPGVIQILGVKTSRFLCQRPDGALYGSLHFDPEACSFRELLLEDGYNVYQSEAHGLPLHLPGQKSPHRDPAPRGPARFLPLPGLPPALPEPPGILAPQPPDVGSSDPLSC", "modifications": "Moiety B (HOOC-(CH2)20-CO-gGlu-2XADO-EDA-CO-CH2) on 51C and 219C of fusion polypeptide"}, "B8": {"name": "Compound 66 (ligand)", "chain": "HGEGTFTSDVSSYLEEQAAKEFIAWLVKGGGGSAPGSPAGSPTGSAPGSPCHPIPDSSPLLQFGGQVRQRYLYTDDAQQTEAHLEIREDGTVGGAADQSPESLLQLKALKPGVIQILGVKTSRFLCQRPDGALYGSLHFDPEACSFRELLLEDGYNVYQSEAHGLPLHLPGQKSPHRDPAPRGPARFLPLPGLPPALPEPPGILAPQPPDVGSSDPLSLVGGSQCRSPSYES", "modifications": "Moiety B (HOOC-(CH2)20-CO-gGlu-2XADO-EDA-CO-CH2) on 51C and 225C of fusion polypeptide"}}, "key": {"human beta-Klotho": {"molecular_target": "T1, human beta-Klotho (human, UniProt Q86Z14 1-1044)", "T1 sequence (looked up)": "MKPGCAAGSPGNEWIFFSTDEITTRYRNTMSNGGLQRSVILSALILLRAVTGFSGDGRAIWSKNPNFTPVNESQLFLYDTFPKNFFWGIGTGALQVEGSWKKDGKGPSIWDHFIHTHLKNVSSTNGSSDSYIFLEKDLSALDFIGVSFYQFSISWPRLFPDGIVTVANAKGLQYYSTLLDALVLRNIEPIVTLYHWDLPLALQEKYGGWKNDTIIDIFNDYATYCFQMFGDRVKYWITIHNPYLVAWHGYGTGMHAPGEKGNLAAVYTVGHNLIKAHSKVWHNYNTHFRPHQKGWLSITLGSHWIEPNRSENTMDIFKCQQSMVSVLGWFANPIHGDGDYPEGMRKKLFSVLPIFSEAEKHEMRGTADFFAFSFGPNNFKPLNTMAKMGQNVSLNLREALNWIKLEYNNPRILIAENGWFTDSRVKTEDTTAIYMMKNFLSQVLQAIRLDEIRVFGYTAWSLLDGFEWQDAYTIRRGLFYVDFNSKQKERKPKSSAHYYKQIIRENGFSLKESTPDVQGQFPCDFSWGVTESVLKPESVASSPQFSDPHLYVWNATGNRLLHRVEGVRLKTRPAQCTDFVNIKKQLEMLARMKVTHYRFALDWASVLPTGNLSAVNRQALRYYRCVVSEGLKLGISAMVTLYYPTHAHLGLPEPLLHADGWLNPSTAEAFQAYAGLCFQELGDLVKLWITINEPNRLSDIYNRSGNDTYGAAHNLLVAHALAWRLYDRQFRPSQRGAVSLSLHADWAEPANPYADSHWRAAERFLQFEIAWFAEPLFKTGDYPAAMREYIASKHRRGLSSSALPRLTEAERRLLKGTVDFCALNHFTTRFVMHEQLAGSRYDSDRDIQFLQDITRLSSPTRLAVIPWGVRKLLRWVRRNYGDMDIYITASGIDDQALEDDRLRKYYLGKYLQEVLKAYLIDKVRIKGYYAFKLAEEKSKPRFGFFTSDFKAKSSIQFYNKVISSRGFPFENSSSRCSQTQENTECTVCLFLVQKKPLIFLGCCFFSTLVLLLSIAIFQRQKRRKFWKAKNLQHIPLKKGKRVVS", "test": "cell-based or functional assay"}, "human GLP-1 receptor": {"molecular_target": "human GLP-1 receptor (human, UniProt P43220 24-463)", "test": "cell-based or functional assay"}}, "note": "Substitutions are numbered along the chain they refer to.", "data": [{"binder": "B1", "values": [{"measurement": "FGF21 activity (EC50, nM); p-ERK levels", "setting": "human beta-Klotho", "result": 0.53, "unit": "nM"}, {"measurement": "GLP-1 activity (EC50, pM); CRE luciferase reporter", "setting": "human GLP-1 receptor", "result": "> 1000", "unit": "pM"}]}, {"binder": "B2", "values": [{"measurement": "FGF21 activity (EC50, nM); p-ERK levels", "setting": "human beta-Klotho", "result": 2.7, "unit": "nM"}, {"measurement": "GLP-1 activity (EC50, pM); CRE luciferase reporter", "setting": "human GLP-1 receptor", "result": 16.5, "unit": "pM"}]}, {"binder": "B3", "values": [{"measurement": "FGF21 activity (EC50, nM); p-ERK levels", "setting": "human beta-Klotho", "result": 3.6, "unit": "nM"}, {"measurement": "GLP-1 activity (EC50, pM); CRE luciferase reporter", "setting": "human GLP-1 receptor", "result": 16.6, "unit": "pM"}]}, {"binder": "B4", "values": [{"measurement": "FGF21 activity (EC50, nM); p-ERK levels", "setting": "human beta-Klotho", "result": 2.4, "unit": "nM"}, {"measurement": "GLP-1 activity (EC50, pM); CRE luciferase reporter", "setting": "human GLP-1 receptor", "result": 16.5, "unit": "pM"}]}, {"binder": "B5", "values": [{"measurement": "FGF21 activity (EC50, nM); p-ERK levels", "setting": "human beta-Klotho", "result": 7.7, "unit": "nM"}, {"measurement": "GLP-1 activity (EC50, pM); CRE luciferase reporter", "setting": "human GLP-1 receptor", "result": 25.1, "unit": "pM"}]}, {"binder": "B6", "values": [{"measurement": "FGF21 activity (EC50, nM); p-ERK levels", "setting": "human beta-Klotho", "result": 12.9, "unit": "nM"}, {"measurement": "GLP-1 activity (EC50, pM); CRE luciferase reporter", "setting": "human GLP-1 receptor", "result": 23.1, "unit": "pM"}]}, {"binder": "B7", "values": [{"measurement": "FGF21 activity (EC50, nM); p-ERK levels", "setting": "human beta-Klotho", "result": "> 100", "unit": "nM"}, {"measurement": "GLP-1 activity (EC50, pM); CRE luciferase reporter", "setting": "human GLP-1 receptor", "result": 24.8, "unit": "pM"}]}, {"binder": "B8", "values": [{"measurement": "FGF21 activity (EC50, nM); p-ERK levels", "setting": "human beta-Klotho", "result": 1, "unit": "nM"}, {"measurement": "GLP-1 activity (EC50, pM); CRE luciferase reporter", "setting": "human GLP-1 receptor", "result": 41.3, "unit": "pM"}]}]}
